Experimental findings from patent US20090155256A1 (Pfizer, published 2009) are described below.

The target in assay [1] is Purified human C1q (191391, MP Biomedicals) (human, UniProt P02745 23-245; P02746 28-253; P02747 29-245). In words: ELISA: Aβ-coated plate, antibody, purified human C1q, FITC anti-C1q.
The target in assay [2] is T1, His-tagged domains of human FcγRI (R&D Systems, Cat # 1257-Fc) (human, UniProt P12314 16-288).
T1 construct: Bought construct; not shown: His tag
In words: SPR (Biacore 3000), His-tagged receptor captured by penta-His antibody. Background: Surface plasmon resonance follows binding to a sensor surface in real time, without labels.

In assay [3] the target is T2, His-tagged domains of human FcγRIII (R&D Systems, Cat # 1597-Fc) (human, UniProt O75015 17-200, limits assumed).
T2 construct: not shown: His tag
Described as above.

The target of assay [4] is T1, His-tagged domains of human FcγRI (R&D …). In words: SPR (Biacore 3000), His-tagged receptor captured by penta-His antibody on CM5 chip, antibody injected; RU relative to control.
In assay [5] the target is T2, His-tagged domains of human FcγRIII …. The assay is described as above.

T2 sequence (O75015 17-200 limits assumed): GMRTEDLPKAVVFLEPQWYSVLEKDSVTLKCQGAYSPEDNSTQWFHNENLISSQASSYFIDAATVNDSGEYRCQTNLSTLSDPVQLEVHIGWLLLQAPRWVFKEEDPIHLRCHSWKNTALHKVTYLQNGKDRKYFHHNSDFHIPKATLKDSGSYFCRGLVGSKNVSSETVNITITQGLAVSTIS
T1 sequence (P12314 16-288 limits assumed): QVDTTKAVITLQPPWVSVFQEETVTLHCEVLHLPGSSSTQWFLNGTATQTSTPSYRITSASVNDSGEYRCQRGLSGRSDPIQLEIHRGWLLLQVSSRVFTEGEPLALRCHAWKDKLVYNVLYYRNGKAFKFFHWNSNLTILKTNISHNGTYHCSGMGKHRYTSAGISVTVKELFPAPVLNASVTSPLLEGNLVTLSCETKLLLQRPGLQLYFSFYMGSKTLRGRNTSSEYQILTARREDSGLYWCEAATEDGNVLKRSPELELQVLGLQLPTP
Chain of Purified human C1q (191391, MP Biomedicals) (P02745 23-245 limits assumed, chain 1 of 3): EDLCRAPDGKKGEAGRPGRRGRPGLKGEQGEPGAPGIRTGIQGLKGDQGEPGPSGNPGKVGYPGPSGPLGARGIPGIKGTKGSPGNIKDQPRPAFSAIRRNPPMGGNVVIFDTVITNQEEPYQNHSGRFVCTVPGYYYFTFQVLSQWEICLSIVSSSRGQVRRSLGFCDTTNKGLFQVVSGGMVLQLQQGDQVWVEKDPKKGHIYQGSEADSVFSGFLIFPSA
Chain of Purified human C1q (191391, MP Biomedicals) (P02746 28-253 limits assumed, chain 2 of 3): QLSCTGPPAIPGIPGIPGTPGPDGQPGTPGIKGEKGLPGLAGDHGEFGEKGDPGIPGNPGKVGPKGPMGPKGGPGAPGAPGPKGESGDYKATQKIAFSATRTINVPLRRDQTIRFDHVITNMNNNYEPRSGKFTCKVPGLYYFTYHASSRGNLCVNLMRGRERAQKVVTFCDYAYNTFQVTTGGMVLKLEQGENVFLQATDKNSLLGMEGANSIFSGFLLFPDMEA
Chain of Purified human C1q (191391, MP Biomedicals) (P02747 29-245 limits assumed, chain 3 of 3): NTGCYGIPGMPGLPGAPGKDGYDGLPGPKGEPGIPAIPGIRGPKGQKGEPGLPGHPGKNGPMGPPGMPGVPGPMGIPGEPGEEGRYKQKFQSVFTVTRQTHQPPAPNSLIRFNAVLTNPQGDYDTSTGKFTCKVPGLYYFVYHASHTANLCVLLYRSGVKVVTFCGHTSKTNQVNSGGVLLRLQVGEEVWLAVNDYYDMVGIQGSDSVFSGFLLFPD

B1: Humanized 3D6 2m (FcγR), human IgG1 L234A/G237A (EU numbering) (antibody)
heavy: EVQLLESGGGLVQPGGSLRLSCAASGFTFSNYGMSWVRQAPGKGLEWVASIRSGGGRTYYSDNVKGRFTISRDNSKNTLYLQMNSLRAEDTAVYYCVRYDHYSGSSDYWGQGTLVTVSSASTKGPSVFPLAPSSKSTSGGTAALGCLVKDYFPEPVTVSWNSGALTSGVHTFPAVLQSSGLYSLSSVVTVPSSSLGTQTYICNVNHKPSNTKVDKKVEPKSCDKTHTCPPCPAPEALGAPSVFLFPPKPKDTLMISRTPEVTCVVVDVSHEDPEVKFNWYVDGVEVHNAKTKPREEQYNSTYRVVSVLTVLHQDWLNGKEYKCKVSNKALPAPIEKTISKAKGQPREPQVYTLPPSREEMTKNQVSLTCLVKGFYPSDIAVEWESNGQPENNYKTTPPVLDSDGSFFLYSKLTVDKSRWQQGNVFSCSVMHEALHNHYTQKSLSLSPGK
light: DVVMTQSPLSLPVTPGEPASISCKSSQSLLDSDGKTYLNWLLQKPGQSPQRLIYLVSKLDSGVPDRFSGSGSGTDFTLKISRVEAEDVGVYYCWQGTHFPRTFGQGTKVEIKRTVAAPSVFIFPPSDEQLKSGTASVVCLLNNFYPREAKVQWKVDNALQSGNSQESVTEQDSKDSTYSLSSTLTLSKADYEKHKVYACEVTHQGLSSPVTKSFNRGEC
notes: also called Hu 3D6 2 m; Hu 3D6 2 m IgG1
Turning to B1, the binding result in assay [1], in assay [2] and in assay [3] was “no binding” in each case. Besides, the “Relative Binding Capability (%)” value in assay [4] and in assay [5] was 0% throughout.

B2: Humanized 3D6 1m (hinge region), human IgG4 S241P (Kabat numbering) (antibody)
heavy: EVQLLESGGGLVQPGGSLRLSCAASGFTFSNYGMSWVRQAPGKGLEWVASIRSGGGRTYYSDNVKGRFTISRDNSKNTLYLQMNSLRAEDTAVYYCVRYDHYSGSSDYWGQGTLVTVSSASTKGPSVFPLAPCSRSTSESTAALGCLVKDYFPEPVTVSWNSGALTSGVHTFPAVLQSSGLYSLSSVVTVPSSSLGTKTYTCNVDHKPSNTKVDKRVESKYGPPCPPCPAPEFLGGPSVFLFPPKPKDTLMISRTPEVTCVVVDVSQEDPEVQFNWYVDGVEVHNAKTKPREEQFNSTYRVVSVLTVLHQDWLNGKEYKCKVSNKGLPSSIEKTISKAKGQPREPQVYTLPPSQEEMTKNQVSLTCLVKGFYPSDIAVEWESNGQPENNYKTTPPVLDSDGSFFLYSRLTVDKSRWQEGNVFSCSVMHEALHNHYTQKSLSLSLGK
light: DVVMTQSPLSLPVTPGEPASISCKSSQSLLDSDGKTYLNWLLQKPGQSPQRLIYLVSKLDSGVPDRFSGSGSGTDFTLKISRVEAEDVGVYYCWQGTHFPRTFGQGTKVEIKRTVAAPSVFIFPPSDEQLKSGTASVVCLLNNFYPREAKVQWKVDNALQSGNSQESVTEQDSKDSTYSLSSTLTLSKADYEKHKVYACEVTHQGLSSPVTKSFNRGEC
notes: also called Hu 3D6 1m IgG4; IgG4 isotype
With B2, the binding result is recorded as “no binding” in assay [1], “binds” in assay [2] and “no binding” in assay [3]. Besides, the “Relative Binding Capability (%)” value in assay [5] was determined as 0%.

B3: Bapineuzumab (humanized 3D6, human IgG1, no Fc mutations) (antibody)
heavy: not shown
light: DVVMTQSPLSLPVTPGEPASISCKSSQSLLDSDGKTYLNWLLQKPGQSPQRLIYLVSKLDSGVPDRFSGSGSGTDFTLKISRVEAEDVGVYYCWQGTHFPRTFGQGTKVEIKRTVAAPSVFIFPPSDEQLKSGTASVVCLLNNFYPREAKVQWKVDNALQSGNSQESVTEQDSKDSTYSLSSTLTLSKADYEKHKVYACEVTHQGLSSPVTKSFNRGEC
notes: also called AAB-001; Bapineuzumab Control
For the molecule B3, the “Relative Binding Capability (%)” value in assay [4] and in assay [5] was 100% throughout.

B4: Humanized 3D6 3m (FcγR) AAB-003, human IgG1 L234A/L235A/G237A (EU numbering) (antibody)
heavy: EVQLLESGGGLVQPGGSLRLSCAASGFTFSNYGMSWVRQAPGKGLEWVASIRSGGGRTYYSDNVKGRFTISRDNSKNTLYLQMNSLRAEDTAVYYCVRYDHYSGSSDYWGQGTLVTVSSASTKGPSVFPLAPSSKSTSGGTAALGCLVKDYFPEPVTVSWNSGALTSGVHTFPAVLQSSGLYSLSSVVTVPSSSLGTQTYICNVNHKPSNTKVDKKVEPKSCDKTHTCPPCPAPEAAGAPSVFLFPPKPKDTLMISRTPEVTCVVVDVSHEDPEVKFNWYVDGVEVHNAKTKPREEQYNSTYRVVSVLTVLHQDWLNGKEYKCKVSNKALPAPIEKTISKAKGQPREPQVYTLPPSREEMTKNQVSLTCLVKGFYPSDIAVEWESNGQPENNYKTTPPVLDSDGSFFLYSKLTVDKSRWQQGNVFSCSVMHEALHNHYTQKSLSLSPGK
light: DVVMTQSPLSLPVTPGEPASISCKSSQSLLDSDGKTYLNWLLQKPGQSPQRLIYLVSKLDSGVPDRFSGSGSGTDFTLKISRVEAEDVGVYYCWQGTHFPRTFGQGTKVEIKRTVAAPSVFIFPPSDEQLKSGTASVVCLLNNFYPREAKVQWKVDNALQSGNSQESVTEQDSKDSTYSLSSTLTLSKADYEKHKVYACEVTHQGLSSPVTKSFNRGEC
notes: also called Hu 3D6 3 m; Hu 3D6 3 m IgG1
For B4, the binding result in assay [1], in assay [2] and in assay [3] was “no binding” each time. For the same molecule, the “Relative Binding Capability (%)” value in assay [4] and in assay [5] was 0% in each case.
